Experiments:
His6-NisA = His6-NisA (UniProt P13068)
[1] = molecular target: His6-ProcA1.7 with GDVQAE inserted between the His6-tag sequence and ProcA1.7
[2] = molecular target: CylLL″ with a 5-amino acid peptide remaining from the leader
[3] = molecular target: CylLS″ with a 5-amino acid N-terminal peptide
His6-NisA-GDVQAE, P13068 = molecular target: T1, His6-NisA-GDVQAE, P13068
T1 chain: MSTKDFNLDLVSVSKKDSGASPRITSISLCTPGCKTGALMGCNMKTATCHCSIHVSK

[4] = molecular target: ProcA1.7-T1C (with GDVQAE)
[5] = molecular target: HalM2-modified HalA2-GDVQAE
[6] = molecular target: NisA-I1C (with GDVQAE), P13068
[7] = molecular target: HalM1-modified HalA1-GDVQAE
[8] = molecular target: peptides with Glu or Lys in the P1′ position (after GDVQAE)

With MBP-ElxP the “MBP-ElxP cleavage result by MALDI-TOF MS (+++ complete, ++ partial, + marginal cleavage)” value (“MBP-ElxP cleavage result by MALDI-TOF MS” for short) (His6-ElxA wt) was “+++”, the “catalytic efficiency of cleavage (HPLC, leader peptide formation)” value (His6-ElxA wt) was “MBP-ElxP cleaved the wild type ElxA with an efficiency of ˜240 M-'s 1” and the “MBP-ElxP cleavage result by MALDI-TOF MS” value (His6-ElxA P-2A) was “++”. For the same molecule, the “efficiency of leader peptide removal (HPLC kinetics, FIG. 3D)” value (His6-ElxA P-2A) was “did not obviously decrease the efficiency of MBP-ElxP to remove the N-terminal leader peptide from ElxA”, the “MBP-ElxP cleavage result by MALDI-TOF MS” value (His6-ElxA D-18A) was “+++” and the “MBP-ElxP cleavage result by MALDI-TOF MS” value (His6-ElxA N-16A) was “+++”. For the same molecule, the “cleavage by ElxP, MALDI-TOF MS” value (His6-NisA) was “ElxP does not cleave wild type NisA”, the “MBP-ElxP cleavage result by MALDI-TOF MS” value (His6-ElxA L-4A) was “+” and the “fold reduction of the ElxP catalytic efficiency against wild type ElxA” value (His6-ElxA L-4A) was “reduction of ˜14-fold in the ElxP catalytic efficiency”. The “MBP-ElxP cleavage result by MALDI-TOF MS” value (His6-ElxA D-5A) was “+”, the “MBP-ElxP cleavage result by MALDI-TOF MS” value (His6-ElxA Q-1A) was “+” and the “fold reduction of the ElxP catalytic efficiency against wild type ElxA” value (His6-ElxA Q-1A) was “reduction of ˜14-fold in the ElxP catalytic efficiency”. The “MBP-ElxP cleavage result by MALDI-TOF MS” value (His6-ElxA F-19A) was “++”, the “MBP-ElxP cleavage result by MALDI-TOF MS” value (His6-ElxA N-3A) was “+++” and the “MBP-ElxP cleavage result by MALDI-TOF MS” value (His6-ElxA L-17A) was “+++”.

B1: His6-CylA-27-412 (protein)
chain: MGSSHHHHHHSQDPNSLSNNISFFIDNSQTTAIEEIESELSSEKVDYIQEIGLVSFKNLDDSDRKFIGKYFNVSEGKKLPDFKPEEVNSSILNINILNKDFKSFNWPYKKILSHIDPVKEQLGKDITIALIDSGIDRLHPNLQDNNLRLKNYVNDIELDEYGHGTQVAGVIDTIAPRVNLNSYKVMDGTDGNSINMLKAIVDATNDQVDIINVSLGSYKNMEIDDERFTVEAFRKVVNYARKNNILIVASAGNESRDISTGNEKHIPGGLESVITVGATKKSGDIADYSNYGSNVSIYGPAGGYGDNYKITGQIDAREMMMTYYPTSLVSPLGKAADFPDGYTLSFGTSLATPEVSAALAAIMSKNVDNSKDSNEVLNTLFENADSFIDKNSMLKYKEVRIK
With B1 the “cleavage by CylA, MS” value (modified CylLL) was “the enzyme also removed the entire leader peptides”, the “cleavage by CylA” value [1] was “Incubation with CylA indeed resulted in cleavage and removal of the His6-tag sequence” and the “cleavage by CylA, MALDI-TOF MS” value [2] was “the 5 amino acids were successfully removed”. For the same molecule, the “cleavage by CylA, MS” value (modified CylLS) was “the enzyme also removed the entire leader peptides”, the “cleavage by CylA, MALDI-TOF MS” value [3] was “the 5 amino acids were successfully removed” and the “cleavage by CylA, MALDI-TOF MS” value (ProcA1.7-GDVQAE-T1W) was “CylA specifically cleaved after Glu-1 for all three mutant peptides”. For the same molecule, the “cleavage by CylA, MALDI-TOF MS” value (His6-NisA-GDVQAE, P13068) was “the leader peptides of both His6-ProcA1.7-GDVQAE and His6-NisA-GDVQAE were successfully removed”, the “cleavage by CylA, MALDI-TOF MS” value (linear CylLS) was “it also removed the leader peptides from linear CylLL and CylLS” and the “cleavage by CylA, MALDI-TOF MS” value (linear CylLL) was “it also removed the leader peptides from linear CylLL and CylLS”. For the same molecule, the “cleavage by CylA, MALDI-TOF MS” value (His6-ProcA1.7-GDVQAE) was “the leader peptides of both His6-ProcA1.7-GDVQAE and His6-NisA-GDVQAE were successfully removed”, the “cleavage by CylA” value [4] was “CylA cleanly removed the leader peptide from both substrates” and the “cleavage by CylA, MALDI-TOF MS” value (ProcA1.7-GDVQAE-T1F) was “CylA specifically cleaved after Glu-1 for all three mutant peptides”. The “cleavage by CylA, MALDI-TOF MS” value [5] was “the leader peptide was successfully removed”, the “cleavage by CylA, MALDI-TOF MS” value (ProcA1.7-GDVQAE-T1G) was “CylA specifically cleaved after Glu-1 for all three mutant peptides, albeit with a lower efficiency for the T-1G mutant” and the “cleavage by CylA” value [6] was “CylA cleanly removed the leader peptide from both substrates”. For the same molecule, the “cleavage by CylA, MALDI-TOF MS” value [7] was “The modified peptide was successfully digested upon incubation with CylA” and the “cleavage by CylA” value [8] was “it did not accept Glu or Lys in the P1′ position”.

From US20240018501A1, “HIGHER PERFORMANCE PROTEASES FOR SCARLESS PEPTIDE TAG REMOVAL” (priority 2017, published 2024)
